The results in this text go back to the supplement of paper PMC5998384.

Data set [1] deals with HeLa Kyoto. Put plainly: solubility in G1/S (NP-40 vs SDS abundance) (log2 ratio); higher = more soluble. To be noted: cell cycle stage: G1/S.
Data set [2] relates to HeLa Kyoto. Put plainly: solubility change mitosis vs G1/S (difference of NP-40 vs SDS log2 ratios) (log2 ratio difference); higher = more soluble in mitosis.
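For solubility change mitosis vs G1/S (difference of NP-40 vs SDS log2 ratios) in this document: synchronized HeLa Kyoto cells (double thymidine block for G1/S, nocodazole release for mitosis), protein amounts in NP-40 versus SDS lysates quantified by mass spectrometry, three biological replicates.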
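For solubility in G1/S (NP-40 vs SDS abundance) in this document: HeLa Kyoto cells arrested at G1/S by double thymidine block, proteins quantified by TMT10plex mass spectrometry in mild NP-40 versus SDS extracts, three biological replicates.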

Regarding “MAAAATAAEGVPSRGPPGEVIHLNVGGKRFSTSRQTLTWIPDSFFSSLLSGRISTLKDETGAIFIDRDPTVFAPILNFLRTKELDPRGVHGSSLLHEAQFYGLTPLVRRLQLREELDRSSCGNVLFNGYLPPPVFPVKRRNRHSLVGPQQLGGRPAPVRRSNTMPPNLGNAGLLGRMLDEKTPPSPSGQPEEPGMVRLVCGHHNWIAVAYTQFLVCYRLKEASGWQLVFSSPRLDWPIERLALTARVHGGALGEHDKMVAAATGSEILLWALQAEGGGSEIGVFHLGVPVEALFFVGNQLIATSHTGRIGVWNAVTKHWQVQEVQPITSYDAAGSFLLLGCNNGSIYYVDVQKFPLRMKDNDLLVSELYRDPAEDGVTALSVYLTPKTSDSGNWIEIAYGTSSGGVRVIVQHPETVGSGPQLFQTFTVHRSPVTKIMLSEKHLISVCADNNHVRTWSVTRFRGMISTQPGSTPLASFKILALESADGHGGCSAGNDIGPYGERDDQQVFIQKVVPSASQLFVRLSSTGQRVCSVRSVDGSPTTAFTVLECEGSRRLGSRPRRYLLTGQANGSLAMWDLTTAMDGLGQAPAGGLTEQELMEQLEHCELAPPAPSAPSWGCLPSPSPRISLTSLHSASSNTSLSGHRGSPSPPQAEARRRGGGSFVERCQELVRSGPDLRRPPTPAPWPSSGLGTPLTPPKMKLNETSF [SHKBP1]”, in data set [1], the “solubility in G1/S (log2)” value is -0.0414. In addition, the “solubility change mitosis (log2)” value in data set [2] is -0.00881.
On the same counts, the results for “MAAAEEGCSVGAEADRELEELLESALDDFDKAKPSPAPPSTTTAPDASGPQKRSPGDTAKDALFASQEKFFQELFDSELASQATAEFEKAMKELAEEEPHLVEQFQKLSEAAGRVGSDMTSQQEFTSCLKETLSGLAKNATDLQNSSMSEEELTKAMEGLGMDEGDGEGNILPIMQSIMQNLLSKDVLYPSLKEITEKYPEWLQSHRESLPPEQFEKYQEQHSVMCKICEQFEAETPTDSETTQKARFEMVLDLMQQLQDLGHPPKELAGEMPPGLNFDLDALNLSGPPGASGEQCLIM [PEX19]” are -0.302 and 0.402.
As to “MAAAFRKAAKSRQREHRERSQPGFRKHLGLLEKKKDYKLRADDYRKKQEYLKALRKKALEKNPDEFYYKMTRVKLQDGVHIIKETKEEVTPEQLKLMRTQDVKYIEMKRVAEAKKIERLKSELHLLDFQGKQQNKHVFFFDTKKEVEQFDVATHLQTAPELVDRVFNRPRIETLQKEKVKGVTNQTGLKRIAKERQKQYNCLTQRIEREKKLFVIAQKIQTRKDLMDKTQKVKVKKETVNSPAIYKFQSRRKR [UTP11L]”, in data set [1], the “solubility in G1/S (log2)” value is -2.71. Further, the “solubility change mitosis (log2)” value in data set [2] came out at 1.5.
On the same counts, the results for “MAAAKPTLTDSLSFCLAQLAAAAGEALGGEKDPATNETPLSRALLALRTRHIKAAGGIERFRARGGLRPLLALLRRAAAAGSAPSQAGPGSAPSSAASGASSPAPASGPAPSAVSSSSPTPPVRLRKTLDLALSILADCCTEGACRTEVRRLGGILPLVTILQCMKTDSIQNRTARALGNLAMEPESCGDIHCAGAVPLLVESLTACQDSQCLQSVVRALRNLADSPQHRLALAQQGAVRPLAELLATAPDAALTLALVRALLELSRGCSRACAEQLSLGGGLGPLVSLASHPKRAVREGTILILANLCAQGLIRPALGNAGGVEVLVDELRQRRDPNGASPTSQQPLVRAVCLLCREAINRARLRDAGGLDLLMGLLRDPRASAWHPRIVAALVGFLYDTGALGRLQALGLVPLLAGQLCGEAGEEEEEGREAASWDFPEERTPERAQGGSFRSLRSWLISEGYATGPDDISPDWSPEQCPPEPMEPASPAPTPTSLRAPRTQRTPGRSPAAAIEEPWGREGPALLLLSRFSQAPDPSGALVTGPALYGLLTYVTGAPGPPSPRALRILSRLTCNPACLEAFVRSYGAALLRAWLVLGVAPDDWPAPRARPTLHSRHRELGERLLQNLTVQAESPFGVGALTHLLLSGSPEDRVACALTLPFICRKPSLWRRLLLEQGGLRLLLAALTRPAPHPLFLFFAADSLSCLQDLVSPTVSPAVPQAVPMDLDSPSPCLYEPLLGPAPVPAPDLHFLLDSGLQLPAQRAASATASPFFRALLSGSFAEAQMDLVPLRGLSPGAAWPVLHHLHGCRGCGAALGPVPPPGQPLLGSEAEEALEAAGRFLLPGLEEELEEAVGRIHLGPQGGPESVGEVFRLGRPRLAAHCARWTLGSEQCPRKRGLALVGLVEAAGEEAGPLTEALLAVVMGIELGARVPA [ARMC5]” are 0.0745 and 0.0453.
For “MAAEEADVDIEGDVVAAAGAQPGSGENTASVLQKDHYLDSSWRTENGLIPWTLDNTISEENRAVIEKMLLEEEYYLSKKSQPEKVWLDQKEDDKKYMKSLQKTAKIMVHSPTKPASYSVKWTIEEKELFEQGLAKFGRRWTKISKLIGSRTVLQVKSYARQYFKNKVKCGLDKETPNQKTGHNLQVKNEDKGTKAWTPSCLRGRADPNLNAVKIEKLSDDEEVDITDEVDELSSQTPQKNSSSDLLLDFPNSKMHETNQGEFITSDSQEALFSKSSRGCLQNEKQDETLSSSEITLWTEKQSNGDKKSIELNDQKFNELIKNCNKHDGRGIIVDARQLPSPEPCEIQKNLNDNEMLFHSCQMVEESHEEEELKPPEQEIEIDRNIIQEEEKQAIPEFFEGRQAKTPERYLKIRNYILDQWEICKPKYLNKTSVRPGLKNCGDVNCIGRIHTYLELIGAINFGCEQAVYNRPQTVDKVRIRDRKDAVEAYQLAQRLQSMRTRRRRVRDPWGNWCDAKDLEGQTFEHLSAEELAKRREEEKGRPVKSLKVPRPTKSSFDPFQLIPCNFFSEEKQEPFQVKVASEALLIMDLHAHVSMAEVIGLLGGRYSEVDKVVEVCAAEPCNSLSTGLQCEMDPVSQTQASETLAVRGFSVIGWYHSHPAFDPNPSLRDIDTQAKYQSYFSRGGAKFIGMIVSPYNRNNPLPYSQITCLVISEEISPDGSYRLPYKFEVQQMLEEPQWGLVFEKTRWIIEKYRLSHSSVPMDKIFRRDSDLTCLQKLLECMRKTLSKVTNCFMAEEFLTEIENLFLSNYKSNQENGVTEENCTKELLM [MYSM1]”, in that order: -0.108 and -0.109.
On the same counts, the results for “MAAENSKQFWKRSAKLPGSIQPVYGAQHPPLDPRLTKNFIKERSKVNTVPLKNKKASSFHEFARNTSDAWDIGDDEEEDFSSPSFQTLNSKVALATAAQVLENHSKLRVKPERSQSTTSDVPANYKVIKSSSDAQLSRNSSDTCLRNPLHKQQSLPLRPIIPLVARISDQNASGAPPMTVREKTRLEKFRQLLSSQNTDLDELRKCSWPGVPREVRPITWRLLSGYLPANTERRKLTLQRKREEYFGFIEQYYDSRNEEHHQDTYRQIHIDIPRTNPLIPLFQQPLVQEIFERILFIWAIRHPASGYVQGINDLVTPFFVVFLSEYVEEDVENFDVTNLSQDMLRSIEADSFWCMSKLLDGIQDNYTFAQPGIQKKVKALEELVSRIDEQVHNHFRRYEVEYLQFAFRWMNNLLMRELPLRCTIRLWDTYQSEPEGFSHFHLYVCAAFLIKWRKEILDEEDFQGLLMLLQNLPTIHWGNEEIGLLLAEAYRLKYMFADAPNHYRR [TBC1D22B]” are -0.183 and -0.0568.
“MAAFGRQVLDWHRLIPLTWACMARQTPHLGEQRRTTASLLRKLTTASNGGVIEELSCVRSNNYVQEPECRRNLVQCLLEKQGTPVVQGSLELERVMSSLLDMGFSNAHINELLSVRRGASLQQLLDIISEFILLGLNPEPVCVVLKKSPQLLKLPIMQMRKRSSYLQKLGLGEGKLKRVLYCCPEIFTMRQQDINDTVRLLKEKCLFTVQQVTKILHSCPSVLREDLGQLEYKFQYAYFRMGIKHPDIVKSEYLQYSLTKIKQRHIYLERLGRYQTPDKKGQTQIPNPLLKDILRVSEAEFLARTACTSVEEFQVFKKLLAREEEESESSTSDDKRASLDEDEDDDDEEDNDEDDNDEDDDDEDDDEAEDNDEDEDDDEEE [MTERF4]”: in data set [1], the “solubility in G1/S (log2)” value turned out to be 0.434. The “solubility change mitosis (log2)” value in data set [2] was -0.0189.
Consider “MAAIAASEVLVDSAEEGSLAAAAELAAQKREQRLRKFRELHLMRNEARKLNHQEVVEEDKRLKLPANWEAKKARLEWELKEEEKKKECAARGEDYEKVKLLEISAEDAERWERKKKRKNPDLGFSDYAAAQLRQYHRLTKQIKPDMETYERLREKHGEEFFPTSNSLLHGTHVPSTEEIDRMVIDLEKQIEKRDKYSRRRPYNDDADIDYINERNAKFNKKAERFYGKYTAEIKQNLERGTAV [SYF2]”, for which the “solubility in G1/S (log2)” value in data set [1] turned out to be 0.12. In data set [2], the “solubility change mitosis (log2)” value amounted to 0.188.
